According to patent publication US20220040304A1, “A COMPOSITION FOR CANCER CELL DEATH AND ITS USE” (Industry-University Cooperation Foundation Hanyang …, priority 2018, published 2022):

Legend:
[1] = Bioluminescence assay of purified proteins with Co-h substrate (BRET); assay type: physicochemical; settings: protein 1 μM, Co-h 50 μM, 1×PBS
Experimental: In addition, 100 μL of buffer (1×PBS) containing the protein purified in Example 1 (final concentration: 1 μM) was dispensed into a 96-well plate (SPL Cell Culture Plate, 96 well (SPL, Cat #30196)), and bioluminescence assay was then performed using 50 μL of buffer (1×PBS) containing a Co-h substrate solution (final concentration: 50 μM), which is a wild-type 2-deoxy derivative. Bioluminescence intensity was immediately measured at a wavelength of 300 to 800 nm using a Thermo Scientific™ Varioskan™ Flash Multimode Reader.

[2] = Stability of bioluminescence intensity in PBS or normal mouse serum; settings: buffer (1×PBS) or normal mouse serum, 37° C., protein 10 μM, Co-h 150 μM
Experimental: Bioluminescence assay was performed by reaction of 30 μL of buffer (1×PBS) containing the purified protein RLuc8.6 or RLuc8.6-KR-LP protein, or RLuc8 or RLuc8-MS-LP protein (final concentration: 10 μM) and 0.8 μL of a Co-h substrate solution (final concentration: 150 μM) in an incubator (37° C.). 30 μL of normal mouse serum (Jackson ImmunoResearch, USA) containing the purified protein (final concentration: 10 μM) and 0.8 μL of a Co-h substrate solution (final concentration: 150 μM) were reacted in an incubator (37° C.). Bioluminescence intensity was immediately measured using GLOMAX.

Molecule	emission in bioluminescence assay (BRET) [1] [nm]	luminescence intensity with increasing reaction time (stability) [2]
RLuc8.6: third protein, mutant Renilla luciferase 8.6 providing light, 38 kDa (protein, RLuc8.6, third protein, mutant Renilla luciferase 8.6 providing light, 38 kDa) MASKVYDPEQRKRMITGPQWWARCKQMNVLDSFINYYDSEKHAENAVIFLHGNATSSYLWRHVVPHIEPVARCIIPDLIGMGKSGKSGNGSYRLLDHYKYLTAWFELLNLPKKIIFVGHDWGSALAFHYAYEHQDRIKAIVHMESVVDVIESWMGWPDIEEELALIKSEEGEKMVLENNFFVETLLPSKIMRKLEPEEFAAYLEPFKEKGEVRRPTLSWPREIPLVKGGKPDVVQIVRNYNAYLRASDDLPKLFIESDPGFFYNAIVEGAKKFPNTEFVKVKGLHFLQEDAPDEMGKYIKSFVERVLKNEQ	535	constant
RLuc8: third protein, mutant Renilla luciferase 8 providing light, 38 kDa (protein, RLuc8) MASKVYDPEQRKRMITGPQWWARCKQMNVLDSFINYYDSEKHAENAVIFLHGNATSSYLWRHVVPHIEPVARCIIPDLIGMGKSGKSGNGSYRLLDHYKYLTAWFELLNLPKKIIFVGHDWGAALAFHYAYEHQDRIKAIVHMESVVDVIESWDEWPDIEEDIALIKSEEGEKMVLENNFFVETVLPSKIMRKLEPEEFAAYLEPFKEKGEVRRPTLSWPREIPLVKGGKPDVVQIVRNYNAYLRASDDLPKLFIESDPGFFSNAIVEGAKKFPNTEFVKVKGLHFLQEDAPDEMGKYIKSFVERVLKNEQ	480	–
